The assay deals with Mayaro virus E1-E2 heterodimer on the VLP (Mayaro virus) (UniProt Q8QZ72). Kind of assay: cryo-EM structure; single-particle averaging with icosahedral (I1) reconstruction of purified MAYV VLPs, ~1-2 mg/mL in STE buffer, vitrified at 4 °C; final resolution 4.5 Å.

The term stoichiometry N denotes the number of molecules, sites or subunits per partner or assembly.

Consider “Mayaro virus E1-E2 heterodimer on the VLP (from UniProt Q8QZ72 807-1242) (complex)”, for which the stoichiometry N was 3.

(Values after publication PMC11652679.)
